Data on 16 variants can be found in FireProtDB (doi:10.1002/pro.100).

B1: Prolactin, P01236 (parent)
chain: MNIKGSPWKGSLLLLLVSNLLLCQSVAPLPICPGGAARCQVTLRDLFDRAVVLSHYIHNLSSEMFSEFDKRYTHGRGFITKAINSCHTSSLATPEDKEQAQQMNQKDFLSLIVSILRSWNEPLYHLVTEVRGMQEAPEAILSKAVEIEEQTKRLLEGMELIVSQVHPETKENEIYPVWSGLPSLQMADEESRLSAYYNLLHCLRRDSHKIDNYLKLLKCRIIHNNNC

The variants in this series derive from B1. The settings on record: Homo sapiens, 25 °C, Urea, Fluorescence, Potassium phosphate 25 mM, NaCl 25 mM, reversible: Yes, structure 2Q98, whole UniProt chain shown.

On to H201A H208A, for which, where the note is “pH 5.8”, the “ddG of mutation (higher = less stable)” value is -1.71 kcal/mol, the denaturant m value is 0.93 kcal/mol/M, the “denaturant midpoint (higher = more stable)” value (“denaturant midpoint” for short) amounted to 6.49 M and the unfolding free energy worked out at 6.01 kcal/mol. Also, under “pH 7.8”, the “ddG of mutation (higher = less stable)” value is 0.41 kcal/mol, the denaturant m value stood at 1.17 kcal/mol/M, the “denaturant midpoint” value amounted to 6.66 M and the unfolding free energy was 7.79 kcal/mol.
Take H223A: under “pH 5.8”, the “ddG of mutation (higher = less stable)” value amounted to 0.03 kcal/mol, the denaturant m value was 0.81 kcal/mol/M, the “denaturant midpoint” value was determined as 5.29 M and the unfolding free energy was found to be 4.27 kcal/mol. Where the note is “pH 7.8”, the “ddG of mutation (higher = less stable)” value is -0.12 kcal/mol, the denaturant m value worked out at 1.42 kcal/mol/M, the “denaturant midpoint” value came out at 5.85 M and the unfolding free energy came to 8.32 kcal/mol.
Consider H58A, for which, for the setting “pH 5.8”, the “ddG of mutation (higher = less stable)” value was -3.1 kcal/mol, the denaturant m value came to 1.2 kcal/mol/M, the “denaturant midpoint” value was 6.18 M and the unfolding free energy turned out to be 7.4 kcal/mol. Under “pH 7.8”, the “ddG of mutation (higher = less stable)” value is -2.05 kcal/mol, the denaturant m value worked out at 1.51 kcal/mol/M, the “denaturant midpoint” value came out at 6.79 M and the unfolding free energy stood at 10.2 kcal/mol.
For the variant H208A, under “pH 5.8”, the “ddG of mutation (higher = less stable)” value is -1.39 kcal/mol, the denaturant m value worked out at 0.96 kcal/mol/M, the “denaturant midpoint” value came out at 5.94 M and the unfolding free energy was 5.69 kcal/mol. Further, where the note is “pH 7.8”, the “ddG of mutation (higher = less stable)” value came out at 0.04 kcal/mol, the denaturant m value was 1.28 kcal/mol/M, the “denaturant midpoint” value amounted to 6.36 M and the unfolding free energy was found to be 8.16 kcal/mol.
As to H58A H208A, under “pH 5.8”, the “ddG of mutation (higher = less stable)” value was -3.06 kcal/mol, the denaturant m value is 1.17 kcal/mol/M, the “denaturant midpoint” value came out at 6.31 M and the unfolding free energy stood at 7.36 kcal/mol.
H166A: for the setting “pH 5.8”, the “ddG of mutation (higher = less stable)” value was -2.04 kcal/mol, the denaturant m value is 1.08 kcal/mol/M, the “denaturant midpoint” value is 5.87 M and the unfolding free energy is 6.34 kcal/mol. Also, under “pH 7.8”, the “ddG of mutation (higher = less stable)” value was -0.58 kcal/mol, the denaturant m value amounted to 1.38 kcal/mol/M, the “denaturant midpoint” value stood at 6.38 M and the unfolding free energy came out at 8.78 kcal/mol.
As for H74A, where the note is “pH 5.8”, the “ddG of mutation (higher = less stable)” value amounted to 0.11 kcal/mol, the denaturant m value came out at 0.81 kcal/mol/M, the “denaturant midpoint” value was determined as 5.14 M and the unfolding free energy came to 4.19 kcal/mol. Further, for the setting “pH 7.8”, the “ddG of mutation (higher = less stable)” value was -1.55 kcal/mol, the denaturant m value came to 1.58 kcal/mol/M, the “denaturant midpoint” value is 6.19 M and the unfolding free energy came out at 9.75 kcal/mol.
As for H58A H201A H208A, where the note is “pH 5.8”, the “ddG of mutation (higher = less stable)” value is -3.98 kcal/mol, the denaturant m value amounted to 1.22 kcal/mol/M, the “denaturant midpoint” value was determined as 6.81 M and the unfolding free energy came to 8.28 kcal/mol. Also, for the setting “pH 7.8”, the “ddG of mutation (higher = less stable)” value was -0.87 kcal/mol, the denaturant m value came to 1.31 kcal/mol/M, the “denaturant midpoint” value is 6.94 M and the unfolding free energy came to 9.07 kcal/mol.
For H201A, for the setting “pH 5.8”, the “ddG of mutation (higher = less stable)” value was -0.24 kcal/mol, the denaturant m value was 0.76 kcal/mol/M, the “denaturant midpoint” value is 5.98 M and the unfolding free energy was 4.54 kcal/mol. Besides, under “pH 7.8”, the “ddG of mutation (higher = less stable)” value turned out to be 0.35 kcal/mol, the denaturant m value was found to be 1.26 kcal/mol/M, the “denaturant midpoint” value is 6.22 M and the unfolding free energy turned out to be 7.85 kcal/mol.
With H87A, where the note is “pH 5.8”, the “ddG of mutation (higher = less stable)” value is -2.26 kcal/mol, the denaturant m value was 1.13 kcal/mol/M, the “denaturant midpoint” value is 5.81 M and the unfolding free energy is 6.56 kcal/mol. For the same variant, where the note is “pH 7.8”, the “ddG of mutation (higher = less stable)” value is 0.02 kcal/mol, the denaturant m value was found to be 1.35 kcal/mol/M, the “denaturant midpoint” value stood at 6.08 M and the unfolding free energy was found to be 8.18 kcal/mol.
Turning to H55A H58A, where the note is “pH 7.8”, the “ddG of mutation (higher = less stable)” value was -1.42 kcal/mol, the denaturant m value worked out at 1.39 kcal/mol/M, the “denaturant midpoint” value was 6.94 M and the unfolding free energy is 9.62 kcal/mol.
For H55A H58A H208A, where the note is “pH 5.8”, the “ddG of mutation (higher = less stable)” value was -3.41 kcal/mol, the denaturant m value was 1.16 kcal/mol/M, the “denaturant midpoint” value stood at 6.67 M and the unfolding free energy was 7.71 kcal/mol. Besides, under “pH 7.8”, the “ddG of mutation (higher = less stable)” value is -3.11 kcal/mol, the denaturant m value worked out at 1.59 kcal/mol/M, the “denaturant midpoint” value stood at 7.1 M and the unfolding free energy stood at 11.3 kcal/mol.
On to H58A H201A, for which, under “pH 5.8”, the “ddG of mutation (higher = less stable)” value is -3.7 kcal/mol, the denaturant m value is 1.19 kcal/mol/M, the “denaturant midpoint” value was determined as 6.7 M and the unfolding free energy was determined as 8 kcal/mol. Also, under “pH 7.8”, the “ddG of mutation (higher = less stable)” value was -1.53 kcal/mol, the denaturant m value came to 1.49 kcal/mol/M, the “denaturant midpoint” value came out at 6.53 M and the unfolding free energy was found to be 9.73 kcal/mol.
As to H125A, where the note is “pH 5.8”, the “ddG of mutation (higher = less stable)” value was -1.07 kcal/mol, the denaturant m value worked out at 0.94 kcal/mol/M, the “denaturant midpoint” value is 5.72 M and the unfolding free energy stood at 5.37 kcal/mol. Besides, where the note is “pH 7.8”, the “ddG of mutation (higher = less stable)” value is -0.33 kcal/mol, the denaturant m value is 1.4 kcal/mol/M, the “denaturant midpoint” value worked out at 6.1 M and the unfolding free energy came to 8.53 kcal/mol.
For the variant H55A, under “pH 5.8”, the “ddG of mutation (higher = less stable)” value was -0.09 kcal/mol, the denaturant m value came to 0.77 kcal/mol/M, the “denaturant midpoint” value amounted to 5.71 M and the unfolding free energy is 4.39 kcal/mol.
As for H55A H208A, where the note is “pH 5.8”, the “ddG of mutation (higher = less stable)” value is -2.06 kcal/mol, the denaturant m value is 1.05 kcal/mol/M, the “denaturant midpoint” value is 6.08 M and the unfolding free energy worked out at 6.36 kcal/mol. In addition, where the note is “pH 7.8”, the “ddG of mutation (higher = less stable)” value is -2.57 kcal/mol, the denaturant m value was determined as 1.62 kcal/mol/M, the “denaturant midpoint” value amounted to 6.64 M and the unfolding free energy turned out to be 10.8 kcal/mol.
